This is an account of results in US20230212589A1.

Assay [1] deals with Recombinant S1 protein of SARS-CoV-2 (SARS-CoV-2) (UniProt P0DTC2).
In assay [2] the target is Recombinant S1 protein of MERS-CoV (MERS-CoV) (UniProt K9N5Q8).

Consider “ACE2-AVI tag-6×His tag fusion protein, biotinylated and labeled with color latex (L-SB-ACE2) (receptor; other documents disagree on this pair)”, for which the sensitivity of the test strip in assay [1] was 10 nM.

With “6×His tag-AVI tag-DPP4 fusion protein, biotinylated and labeled with color latex (L-SB-DPP4) (receptor; other documents disagree on this pair)”, in assay [2], the sensitivity of the test strip is 10 nM.
